Test results: the supplement of paper PMC9233669
Fewer inactive variants are shown than the library holds.

Assays:
biotinyl-Ile-oxazolone = test: self-aminoacylation, catalytic enhancement (BIO) (fold over background); higher = more active; k-Seq, kA / k0A0; sequences stand for … in GGGAAUGGAUCCACAUCUACGAAUUC…UUCACUGCAGACUUGACGAAGCUG
Procedure, shortened: (§1)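 Mutagenized RNA pools (0.43 μM; 21-nt variable region) were treated with 2–1250 μM of each biotinyl-aminoacyl-oxazolone. Conditions were 50 μL HEPES/NaCl/KCl/MgCl2/CaCl2 buffer, 5% acetonitrile, pH 6.9–7.0, room temperature, 90 minutes. Catalytic enhancement, the median kA relative to the uncatalyzed rate, was derived from streptavidin capture, qPCR and Illumina sequencing.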

biotinyl-Val-oxazolone = test: self-aminoacylation, catalytic enhancement (BVO) (fold over background); higher = more active; k-Seq, kA / k0A0; sequences stand for … in GGGAAUGGAUCCACAUCUACGAAUUC…UUCACUGCAGACUUGACGAAGCUG
Procedure, shortened: as §1

biotinyl-Phe-oxazolone = test: self-aminoacylation, catalytic enhancement (BFO) (fold over background); higher = more active; k-Seq, kA / k0A0; sequences stand for … in GGGAAUGGAUCCACAUCUACGAAUUC…UUCACUGCAGACUUGACGAAGCUG
Procedure, shortened: as §1

biotinyl-Trp-oxazolone = test: self-aminoacylation, catalytic enhancement (BWO) (fold over background); higher = more active; k-Seq, kA / k0A0; sequences stand for … in GGGAAUGGAUCCACAUCUACGAAUUC…UUCACUGCAGACUUGACGAAGCUG
Procedure, shortened: as §1

biotinyl-Met-oxazolone = test: self-aminoacylation, catalytic enhancement (BMO) (fold over background); higher = more active; k-Seq, kA / k0A0; sequences stand for … in GGGAAUGGAUCCACAUCUACGAAUUC…UUCACUGCAGACUUGACGAAGCUG
Procedure, shortened: as §1

biotinyl-Leu-oxazolone = test: self-aminoacylation, catalytic enhancement (BLO) (fold over background); higher = more active; k-Seq, kA / k0A0; sequences stand for … in GGGAAUGGAUCCACAUCUACGAAUUC…UUCACUGCAGACUUGACGAAGCUG
Procedure, shortened: as §1

Sequence | self-aminoacylation (biotinyl-Ile-oxazolone) | self-aminoacylation (biotinyl-Val-oxazolone) | self-aminoacylation (biotinyl-Phe-oxazolone) | self-aminoacylation (biotinyl-Trp-oxazolone) | self-aminoacylation (biotinyl-Met-oxazolone) | self-aminoacylation (biotinyl-Leu-oxazolone)
GUACUUCAAACACUCGGUCUG [Fam1A.1 aminoacylation ribozyme variant] | 1.5 | 1.3 | 5.9 | 1.91 | 1.31 | 1.64
GUACUUCAAACCAUCGGUCUG [Fam1A.1 aminoacylation ribozyme variant] | 1.22 | 1.18 | 2.13 | 1.31 | 1.13 | 0.918
GUAUUUCAAACAAUCGGUCUG [Fam1A.1 aminoacylation ribozyme variant] | 1.1 | 1.04 | 2.64 | 2.34 | 1.09 | 1.02
GUCACCCUGGUCAUCGAGUGA [Fam2.1 aminoacylation ribozyme variant] | 5.2 | 5.25 | 45.7 | 10.6 | 7.39 | 7.9
GUCCUUCAAACAAUCGGUCUG [Fam1A.1 aminoacylation ribozyme variant] | 1.31 | 1.52 | 11.9 | 11 | 1.35 | 1.49
GUUACACUGGUCAUCGAGUGA [Fam2.1 aminoacylation ribozyme variant] | 4.91 | 4.18 | 28.9 | 8.81 | 6.79 | 6.76
GUUACCCCGGUCAUCGAGUGA [Fam2.1 aminoacylation ribozyme variant] | 3.82 | 3.38 | 45.8 | 8.27 | 6.95 | 7.66
GUUACCCUAGUCAUCGAGUGA [Fam2.1 aminoacylation ribozyme variant] | 3.81 | 3.33 | 28.1 | 7.77 | 6.66 | 6.93
GUUACCCUCGUCAUCGAGUGA [Fam2.1 aminoacylation ribozyme variant] | 2.45 | 2.31 | 11 | 4.33 | 4.14 | 3.7
GUUACCCUGGGCAUCGAGUGA [Fam2.1 aminoacylation ribozyme variant] | 4.53 | 4.16 | 68.6 | 10.1 | 8.99 | 8.7
GUUACCCUGGUCAUCGAGCGA [Fam2.1 aminoacylation ribozyme variant] | 2.84 | 3.46 | 5.54 | 4.27 | 4.51 | 4.14
GUUACCCUGGUCAUCGAGUGG [Fam2.1 aminoacylation ribozyme variant] | 15 | 17.4 | 402 | 50 | 57.2 | 58.4
GUUACCCUGGUCAUCUAGUGA [Fam2.1 aminoacylation ribozyme variant] | 5.9 | 6.05 | 78.6 | 13.4 | 12 | 11.7
GUUACCCUGGUCAUUGAGUGA [Fam2.1 aminoacylation ribozyme variant] | 4.72 | 5.29 | 71.3 | 13 | 10.2 | 11
GUUAGCCUGGUCAUCGAGUGA [Fam2.1 aminoacylation ribozyme variant] | 5.11 | 5.04 | 51.9 | 8.56 | 6.67 | 7.66
GUUCACCCAGGUCAUCGGGUG [Fam2.2 aminoacylation ribozyme variant] | 3.12 | 3.64 | 29.1 | 3.77 | 3.77 | 5.02
GUUCACCUAGCUCAUCGGGUG [Fam2.2 aminoacylation ribozyme variant] | 1.55 | 1.91 | 1.08 | 2.86 | 1.64 | 2.06
GUUCACCUAGGCCAUCGGGUG [Fam2.2 aminoacylation ribozyme variant] | 3.17 | 3.86 | 25.4 | 3.64 | 3.77 | 3.61
GUUCACCUAGGUCAUCGGAUG [Fam2.2 aminoacylation ribozyme variant] | 0.815 | 0.979 | 0.879 | 0.5 | 0.701 | 0.728
GUUCACCUAGGUCAUCGGGUA [Fam2.2 aminoacylation ribozyme variant] | 24.6 | 22.6 | 381 | 33.1 | 50.6 | 68.3
GUUCACCUAGGUCAUUGGGUG [Fam2.2 aminoacylation ribozyme variant] | 2.6 | 2.27 | 8.92 | 3.8 | 2.21 | 2.83
GUUCACCUAGGUCCUCGGGUG [Fam2.2 aminoacylation ribozyme variant] | 3.49 | 4.16 | 25.5 | 5.27 | 4.16 | 4.67
GUUCAUCUAGGUCAUCGGGUG [Fam2.2 aminoacylation ribozyme variant] | 4.19 | 3.72 | 35.3 | 7.23 | 5.79 | 7.61
GUUUCCCUGGUCAUCGAGUGA [Fam2.1 aminoacylation ribozyme variant] | 6.97 | 7.85 | 48.7 | 16.2 | 14.6 | 14.8
UAGCUUGCUAAUAGUCGCAAG [Fam3.1 aminoacylation ribozyme variant] | 2.34 | 2.22 | 3.65 | 1.84 | 1.88 | 1.8
UAGGUUGCUAAUAGUCGCAAG [Fam3.1 aminoacylation ribozyme variant] | 1.4 | 1.2 | 1.91 | 2.01 | 1.2 | 1.15

Sequence | self-aminoacylation (biotinyl-Ile-oxazolone) | self-aminoacylation (biotinyl-Val-oxazolone) | self-aminoacylation (biotinyl-Phe-oxazolone) | self-aminoacylation (biotinyl-Trp-oxazolone) | self-aminoacylation (biotinyl-Met-oxazolone) | self-aminoacylation (biotinyl-Leu-oxazolone)
UAGUAUGCUAAUAGUCGCAAG [Fam3.1 aminoacylation ribozyme variant] | 1.62 | 1.13 | 2 | 1.68 | 1.28 | 1.57
UAGUUUGCUAAAAGUCGCAAG [Fam3.1 aminoacylation ribozyme variant] | 1.53 | 1.6 | 3.92 | 3.43 | 1.93 | 1.57
UAGUUUGCUAAUAGUCGCUAG [Fam3.1 aminoacylation ribozyme variant] | 1.18 | 1.13 | 1.68 | 1.08 | 1.01 | 1.13
UAGUUUGCUGAUAGUCGCAAG [Fam3.1 aminoacylation ribozyme variant] | 1.61 | 1.47 | 2.35 | 1.61 | 0.993 | 1.08
UAGUUUGGUAAUAGUCGCAAG [Fam3.1 aminoacylation ribozyme variant] | 1.73 | 1.57 | 2.29 | 1.96 | 1.74 | 1.81
UAGUUUUCUAAUAGUCGCAAG [Fam3.1 aminoacylation ribozyme variant] | 1.52 | 1.23 | 1.6 | 1.59 | 1.25 | 1.3
UCACACUUCAAGCAACCGGUC [Fam1B.1 aminoacylation ribozyme variant] | 0.984 | 1.05 | 1.26 | 0.796 | 0.801 | 0.739
UCACACUUCAAGCAAGCGGUC [Fam1B.1 aminoacylation ribozyme variant] | 0.965 | 1.06 | 0.807 | 0.746 | 1.02 | 0.991
UCACACUUCAAGCAAUCAGUC [Fam1B.1 aminoacylation ribozyme variant] | 0.777 | 0.932 | 17.9 | 5.72 | 0.645 | 0.817
UCACACUUCAAGCCAUCGGUC [Fam1B.1 aminoacylation ribozyme variant] | 1.01 | 1.24 | 0.948 | 0.854 | 1.08 | 1.1
UCACACUUCAUGCAAUCGGUC [Fam1B.1 aminoacylation ribozyme variant] | 0.85 | 0.887 | 0.632 | 0.656 | 0.793 | 0.736
UCACACUUCGAGCAAUCGGUC [Fam1B.1 aminoacylation ribozyme variant] | 0.91 | 1.05 | 1.23 | 1.12 | 0.953 | 0.931
UGUCACCUAGGUCAUCGGGUG [Fam2.2 aminoacylation ribozyme variant] | 3.84 | 3.6 | 23.9 | 5.31 | 4.27 | 3.64
UUACAUCAAACAAUCGGUCUG [Fam1A.1 aminoacylation ribozyme variant] | 1.12 | 1.17 | 3.42 | 2.51 | 1.19 | 1.17
UUACCUCAAACAAUCGGUCUG [Fam1A.1 aminoacylation ribozyme variant] | 0.975 | 1.01 | 3.03 | 2.66 | 0.97 | 0.861
UUACUACAAACAAUCGGUCUG [Fam1A.1 aminoacylation ribozyme variant] | 1.04 | 0.833 | 1.62 | 1.31 | 0.904 | 0.856
UUACUUCAAACAACCGGUCUG [Fam1A.1 aminoacylation ribozyme variant] | 1.36 | 1.15 | 1.38 | 1.51 | 1.03 | 1.22
UUACUUCAAACAAUCGCUCUG [Fam1A.1 aminoacylation ribozyme variant] | 1.21 | 1.12 | 2.29 | 1.51 | 1.07 | 1.16
UUACUUCAAACAAUCGGACUG [Fam1A.1 aminoacylation ribozyme variant] | 1.08 | 0.854 | 7.94 | 4.92 | 1.26 | 0.969
UUACUUCAAACAAUCGGUAUG [Fam1A.1 aminoacylation ribozyme variant] | 1.16 | 1.02 | 12.4 | 7.05 | 1.02 | 1.3
UUACUUCUAACAAUCGGUCUG [Fam1A.1 aminoacylation ribozyme variant] | 1.08 | 1.08 | 0.907 | 0.836 | 1.09 | 1.11
UUUACCCGGGUCAUCGAGUGA [Fam2.1 aminoacylation ribozyme variant] | 3.4 | 4.02 | 43.1 | 9.17 | 7.15 | 7.17
UUUACCCUAGUCAUCGAGUGA [Fam2.1 aminoacylation ribozyme variant] | 2.79 | 3.09 | 17.3 | 7.33 | 5.76 | 5.04
UUUACCCUGGUCAUCGAAUGA [Fam2.1 aminoacylation ribozyme variant] | 1.31 | 1.05 | 1.02 | 1.78 | 1.22 | 1.19
UUUACCCUGGUCAUCGAGUCA [Fam2.1 aminoacylation ribozyme variant] | 0.707 | 0.738 | 1.06 | 0.585 | 0.696 | 0.713
